Data taken from publication PMC10397247.
Like-named read-outs stand apart in the source and are kept apart here.

Assays:
[1] = molecular target: T1, 4H56-bH; test: two-hybrid library CCNG1;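 also: natural log of median RNA to DNA barcode read ratio; higher means stronger binding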
T1 chain: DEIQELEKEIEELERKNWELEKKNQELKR

[2] = molecular target: T2, 4H949-bH; test: two-hybrid library CCNG1;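 also: natural log of median RNA to DNA barcode read ratio; higher means stronger binding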
T2 chain: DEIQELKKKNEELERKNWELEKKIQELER

[3] = molecular target: T3, 4H730-bH; test: two-hybrid library CCNG1;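 also: natural log of median RNA to DNA barcode read ratio; higher means stronger binding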
T3 chain: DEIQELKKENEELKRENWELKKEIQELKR

[4] = molecular target: T4, 4H932-bH; test: two-hybrid library CCNG1;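 also: natural log of median RNA to DNA barcode read ratio; higher means stronger binding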
T4 chain: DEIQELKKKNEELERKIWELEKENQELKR

[5] = molecular target: T5, 4H796-bH; test: two-hybrid library CCNG1;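 also: natural log of median RNA to DNA barcode read ratio; higher means stronger binding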
T5 chain: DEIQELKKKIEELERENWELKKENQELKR

[6] = molecular target: T6, 4H741-bH; test: two-hybrid library CCNG1;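 also: natural log of median RNA to DNA barcode read ratio; higher means stronger binding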
T6 chain: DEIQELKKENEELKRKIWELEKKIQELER

[7] = molecular target: T7, 4H492-bH; test: two-hybrid library CCNG1
T7 chain: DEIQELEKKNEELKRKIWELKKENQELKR

[8] = molecular target: T8, 4H477-bH; test: two-hybrid library CCNG1
T8 chain: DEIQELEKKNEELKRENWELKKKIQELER

[9] = molecular target: T9, 4H568-bN; test: two-hybrid library CCNG1
T9 chain: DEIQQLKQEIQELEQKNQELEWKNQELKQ

[10] = molecular target: T10, 4H883-bN; test: two-hybrid library CCNG1
T10 chain: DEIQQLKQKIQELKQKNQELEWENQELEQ

[11] = molecular target: T11, 4H797-bN; test: two-hybrid library CCNG1
T11 chain: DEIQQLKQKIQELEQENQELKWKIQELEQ

[12] = molecular target: T12, 4H462-bN; test: two-hybrid library CCNG1
T12 chain: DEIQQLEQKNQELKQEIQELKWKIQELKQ

[13] = molecular target: T13, 4H918-bN; test: two-hybrid library CCNG1
T13 chain: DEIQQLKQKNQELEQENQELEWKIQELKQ

[14] = molecular target: T14, 4H687-bN; test: two-hybrid library CCNG1
T14 chain: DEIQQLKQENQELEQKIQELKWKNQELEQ

[15] = molecular target: T15, 4H72-bN; test: two-hybrid library CCNG1
T15 chain: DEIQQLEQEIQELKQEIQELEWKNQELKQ

[16] = molecular target: T16, 4H953-bN; test: two-hybrid library CCNG1
T16 chain: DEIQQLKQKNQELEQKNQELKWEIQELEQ

[17] = molecular target: T17, 4H967-bN; test: two-hybrid library CCNG1
T17 chain: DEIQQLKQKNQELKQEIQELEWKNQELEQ

[18] = molecular target: T18, 4H607-bN; test: two-hybrid library CCNG1
T18 chain: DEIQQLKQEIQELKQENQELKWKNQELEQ

[19] = molecular target: T19, 4H317-AA; test: two-hybrid library CCmax; conditions: mean of both orientations
T19 chain: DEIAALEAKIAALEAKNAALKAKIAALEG

[20] = molecular target: T20, 4H605-AA; test: two-hybrid library CCmax; conditions: mean of both orientations
T20 chain: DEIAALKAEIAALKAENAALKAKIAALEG

[21] = molecular target: T21, 4H566-AA; test: two-hybrid library CCmax; conditions: mean of both orientations
T21 chain: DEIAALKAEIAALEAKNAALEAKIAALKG

[22] = molecular target: T22, 4H2575-AA; test: two-hybrid library CCmax; conditions: mean of both orientations
T22 chain: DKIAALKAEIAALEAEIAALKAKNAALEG

[23] = molecular target: T23, 4H3655-AA; test: two-hybrid library CCmax; conditions: mean of both orientations
T23 chain: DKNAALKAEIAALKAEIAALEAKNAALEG

[24] = molecular target: T24, 4H335-AA; test: two-hybrid library CCmax; conditions: mean of both orientations
T24 chain: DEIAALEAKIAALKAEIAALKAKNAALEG

[25] = molecular target: T25, 4H2466-AA; test: two-hybrid library CCmax; conditions: mean of both orientations
T25 chain: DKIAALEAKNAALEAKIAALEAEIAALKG

[26] = molecular target: T26, 4H3627-AA; test: two-hybrid library CCmax
T26 chain: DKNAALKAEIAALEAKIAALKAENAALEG

[27] = molecular target: T27, 4H794-AA; test: two-hybrid library CCmax; conditions: mean of both orientations
T27 chain: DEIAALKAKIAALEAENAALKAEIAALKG

[28] = molecular target: T28, 4H2617-AA; test: two-hybrid library CCmax; conditions: mean of both orientations
T28 chain: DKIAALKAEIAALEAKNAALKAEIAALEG

[29] = molecular target: T29, 4H2837-AA; test: two-hybrid library CCmax; conditions: mean of both orientations
T29 chain: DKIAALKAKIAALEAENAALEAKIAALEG

[30] = molecular target: T30, 4H906-AA; test: two-hybrid library CCmax; conditions: mean of both orientations
T30 chain: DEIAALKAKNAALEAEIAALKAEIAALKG

[31] = molecular target: T31, 4H342-AA; test: two-hybrid library CCmax; conditions: mean of both orientations
T31 chain: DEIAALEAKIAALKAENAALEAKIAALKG

[32] = molecular target: T32, 4H2754-AA; test: two-hybrid library CCmax; conditions: mean of both orientations
T32 chain: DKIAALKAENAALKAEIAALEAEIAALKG

[33] = molecular target: T33, 4H678-AA; test: two-hybrid library CCmax; conditions: mean of both orientations
T33 chain: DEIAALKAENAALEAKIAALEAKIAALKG

[34] = molecular target: T34, 4H717-AA; test: two-hybrid library CCmax; conditions: mean of both orientations
T34 chain: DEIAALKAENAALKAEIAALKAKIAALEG

[35] = molecular target: T35, 4H2642-AA; test: two-hybrid library CCmax; conditions: mean of both orientations
T35 chain: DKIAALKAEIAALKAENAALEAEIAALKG

[36] = molecular target: T36, 4H429-AA; test: two-hybrid library CCmax
T36 chain: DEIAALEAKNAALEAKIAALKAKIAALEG

[37] = molecular target: T37, 4H3112-AA; test: two-hybrid library CCmax; conditions: mean of both orientations
T37 chain: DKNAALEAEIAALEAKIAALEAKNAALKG

[38] = molecular target: T38, 4H2949-AA; test: two-hybrid library CCmax; conditions: mean of both orientations
T38 chain: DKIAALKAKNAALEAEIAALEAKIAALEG

[39] = molecular target: T39, 4H2944-AA; test: two-hybrid library CCmax; conditions: mean of both orientations
T39 chain: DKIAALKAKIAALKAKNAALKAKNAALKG

[40] = molecular target: T40, 4H780-AA; test: two-hybrid library CCmax; conditions: mean of both orientations
T40 chain: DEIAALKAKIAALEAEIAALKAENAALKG

[41] = molecular target: T41, 4H3427-AA; test: two-hybrid library CCmax; conditions: mean of both orientations
T41 chain: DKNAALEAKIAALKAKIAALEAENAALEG

[42] = molecular target: T42, 4H3343-AA; test: two-hybrid library CCmax; conditions: mean of both orientations
T42 chain: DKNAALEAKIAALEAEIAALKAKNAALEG

[43] = molecular target: T43, 4H2883-AA; test: two-hybrid library CCmax; conditions: mean of both orientations
T43 chain: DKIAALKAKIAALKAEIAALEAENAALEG

[44] = molecular target: T44, 4H993-AA; test: two-hybrid library CCmax; conditions: mean of both orientations
T44 chain: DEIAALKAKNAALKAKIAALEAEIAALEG

[45] = molecular target: T45, 4H3844-AA; test: two-hybrid library CCmax; conditions: mean of both orientations
T45 chain: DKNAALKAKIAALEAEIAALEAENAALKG

[46] = molecular target: T46, 4H2729-AA; test: two-hybrid library CCmax; conditions: mean of both orientations
T46 chain: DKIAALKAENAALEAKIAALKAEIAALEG

[47] = molecular target: T47, 4H881-AA; test: two-hybrid library CCmax; conditions: mean of both orientations
T47 chain: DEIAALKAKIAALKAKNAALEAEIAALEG

[48] = molecular target: T48, 4H2505-AA; test: two-hybrid library CCmax
T48 chain: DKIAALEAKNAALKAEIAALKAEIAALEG

[49] = molecular target: T49, 4H3921-AA; test: two-hybrid library CCmax; conditions: mean of both orientations
T49 chain: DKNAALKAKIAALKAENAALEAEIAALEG

[50] = molecular target: T50, 4H454-AA; test: two-hybrid library CCmax; conditions: mean of both orientations
T50 chain: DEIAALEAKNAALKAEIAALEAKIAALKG

[51] = molecular target: T51, 4H48-AA; test: two-hybrid library CCmax; conditions: mean of both orientations
T51 chain: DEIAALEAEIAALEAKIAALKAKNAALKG

[52] = molecular target: T52, 4H3606-AA; test: two-hybrid library CCmax; conditions: mean of both orientations
T52 chain: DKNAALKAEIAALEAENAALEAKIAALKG

[53] = molecular target: T53, 4H619-bH; test: two-hybrid library CCNG1
T53 chain: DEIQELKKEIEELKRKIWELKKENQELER

[54] = molecular target: T54, 4H850-bH; test: two-hybrid library CCNG1
T54 chain: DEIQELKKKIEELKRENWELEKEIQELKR

[55] = molecular target: T55, 4H906-bH; test: two-hybrid library CCNG1
T55 chain: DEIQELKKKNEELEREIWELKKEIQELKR

[56] = molecular target: T56, 4H40-bH; test: two-hybrid library CCNG1
T56 chain: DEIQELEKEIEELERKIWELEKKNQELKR

DEIQELEKEIEELERKNWELEKKNQELKR [4H56-bH]
interaction score [1]: -0.661
interaction score [2]: -1.15
interaction score [3]: -0.307
interaction score [4]: -0.0294
interaction score [5]: 0.682

DEIQELEKKNEELKRENWELKKKIQELER [4H477-bH]
interaction score [6]: -0.234
interaction score [7]: -1.31
interaction score [8]: 0.526

DEIQQLEQKNQELKQEIQELKWKIQELKQ [4H462-bN]
interaction score [9]: 0.685
interaction score [10]: -1.4
interaction score [11]: -0.297
interaction score [12]: -0.578
interaction score [13]: -1.19
interaction score [14]: -0.147
interaction score [15]: -0.825
interaction score [16]: -0.25
interaction score [17]: -0.954
interaction score [18]: 0.42

DKIAALEAKIAALKAENAALKAEIAALEG [4H2393-AA]
interaction score [19]: 1.92
interaction score [20]: 0.852
interaction score [21]: 1.33
interaction score [22]: -1.03
interaction score [23]: -1.41
interaction score [24]: -1.56
interaction score [25]: 0.221
interaction score ([26]; mean of both orientations): -1.42
interaction score [27]: 1.33
interaction score [28]: 1.93
interaction score [29]: 1.73
interaction score [30]: -1.04
interaction score [31]: 2.37
interaction score [32]: -1.23
interaction score [33]: -0.574
interaction score [34]: -1.55
interaction score [35]: 1.82
interaction score ([36]; mean of both orientations): -1.55
interaction score [37]: -1.21
interaction score [38]: 1.51
interaction score [39]: -0.902
interaction score [40]: -1.42
interaction score [41]: -1.45
interaction score [42]: -1.29
interaction score [43]: -1.21
interaction score [44]: -1.5
interaction score [45]: 1.55
interaction score [46]: -0.695
interaction score [47]: -1
interaction score ([48]; mean of both orientations): -1.59
interaction score [49]: -1.77
interaction score [50]: -0.951
interaction score [51]: -0.193
interaction score [52]: 2.32

DEIQELKKEIEELKRKIWELKKENQELER [4H619-bH]
interaction score [53]: 0.749
interaction score [54]: 0.196
interaction score [55]: -0.349

DEIQELEKEIEELERKIWELEKKNQELKR [4H40-bH]
interaction score [6]: 0.646
interaction score [7]: 0.0489
interaction score [56]: -0.0343
interaction score [8]: -0.00296

DKIAALEAKNAALKAEIAALKAEIAALEG [4H2505-AA]
interaction score [19]: -1.65
interaction score [20]: -1.14
interaction score [21]: -0.341
interaction score [22]: -0.277
interaction score [23]: -1.61
interaction score [24]: -1.01
interaction score [26]: -1.54
interaction score [27]: -0.881
interaction score [28]: -0.92
interaction score [29]: 1.03
interaction score [30]: 0.636
interaction score [31]: 1.06
interaction score [32]: 1.69
interaction score [33]: 1.78
interaction score [34]: -0.029
interaction score [35]: -0.234
interaction score [36]: 1.6
interaction score [37]: -1.11
interaction score [38]: 1.68
interaction score [39]: -1.9
interaction score [40]: -1.6
interaction score [41]: -1.04
interaction score [42]: -1.59
interaction score [43]: -0.918
interaction score [44]: -1.53
interaction score [45]: -1.01
interaction score [46]: 2.02
interaction score [47]: -1.43
interaction score [48]: 1.09
interaction score [49]: -0.328
interaction score [50]: 2.21
interaction score [51]: 0.908
interaction score [52]: 1.04
